Test results reported in PMC4837482, “The complex binding mode of the peptide hormone H2 relaxin to its receptor RXFP1” (Nature Communications, 2016).

Key:
Test in all cases: cAMP activity assay (pCRE β-galactosidase reporter), transfected HEK293T cells
Type in all cases: cell-based
[1] = molecular target: T1, RXFP1 A68^Δ (Homo sapiens, UniProt Q9HBX9, DEL90-90); conditions: construct A68^Δ, ±s.e.m.
T1 construct: transiently transfected human embryonic kidney (HEK) 293T cells expressing full-length RXFP1 and mutants; expressed in transfected cells; host or cells: HEK293T
T1 sequence (Q9HBX9 with tags, fused parts or gaps DEL90-90 limits assumed): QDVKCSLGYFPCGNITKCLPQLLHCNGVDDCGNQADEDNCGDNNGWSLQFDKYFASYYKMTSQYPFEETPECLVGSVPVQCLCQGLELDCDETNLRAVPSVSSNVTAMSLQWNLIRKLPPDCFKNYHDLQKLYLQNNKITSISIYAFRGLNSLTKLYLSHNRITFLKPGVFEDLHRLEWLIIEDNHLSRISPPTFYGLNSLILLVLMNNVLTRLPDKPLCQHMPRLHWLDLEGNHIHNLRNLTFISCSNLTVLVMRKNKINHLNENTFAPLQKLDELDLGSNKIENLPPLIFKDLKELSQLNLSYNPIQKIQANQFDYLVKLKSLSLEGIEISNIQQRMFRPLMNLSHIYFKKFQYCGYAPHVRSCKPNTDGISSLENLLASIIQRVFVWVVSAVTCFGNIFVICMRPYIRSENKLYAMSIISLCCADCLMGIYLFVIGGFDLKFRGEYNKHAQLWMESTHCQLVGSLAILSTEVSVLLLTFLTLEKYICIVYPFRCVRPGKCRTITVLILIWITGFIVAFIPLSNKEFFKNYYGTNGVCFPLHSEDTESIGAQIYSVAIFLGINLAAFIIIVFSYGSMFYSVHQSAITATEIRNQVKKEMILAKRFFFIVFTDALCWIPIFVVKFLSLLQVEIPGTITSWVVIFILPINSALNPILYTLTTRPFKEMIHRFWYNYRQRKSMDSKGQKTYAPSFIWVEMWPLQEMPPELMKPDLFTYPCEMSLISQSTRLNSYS
Protocol: (§1) Media was aspirated and plates stored frozen at −80 °C overnight. […] H2 relaxin dilutions were prepared in minimal media containing 1% DMSO. Positive and negative control stimulations were achieved by incubation with 5 μM Forskolin and minimal media/1% DMSO, respectively. Plates were developed by 10 min of incubation in 25 μl of lysis buffer 1 (100 mM Na2HPO4, pH 8.0, 0.2 mM MgSO4 0.01 mM MnCl2); a further 10 min of incubation in 100 μl of buffer 2 (100 mM Na2HPO4, pH 8.0, 2 mM MgSO4, 0.1 mM MnCl2, 0.5% Triton X-100, 40 mM β-mercaptoethanol); then to each well 25 μl of the β-galactosidase substrate, chlorophenol red-β-D-galactopyranoside (Roche) was added. All incubation steps were conducted with orbital shaking. Color-change was monitored and readings were taken on a Benchmark Plus Microplate Reader (Bio-Rad) at 570 nm. A minimum of three separate experiments were performed, each of them in triplicate, and data were pooled and presented as percentages of the maximum response induced by 5 μM Forskolin±s.e.m.

[2] = molecular target: T2, RXFP1 M60A (Homo sapiens, UniProt Q9HBX9, M82A); conditions: construct M60A, ±s.e.m.
T2 construct: cells expressing full-length RXFP1 and mutants; expressed in transfected cells; host or cells: HEK293T
T2 sequence (Q9HBX9 23-757 M82A limits assumed): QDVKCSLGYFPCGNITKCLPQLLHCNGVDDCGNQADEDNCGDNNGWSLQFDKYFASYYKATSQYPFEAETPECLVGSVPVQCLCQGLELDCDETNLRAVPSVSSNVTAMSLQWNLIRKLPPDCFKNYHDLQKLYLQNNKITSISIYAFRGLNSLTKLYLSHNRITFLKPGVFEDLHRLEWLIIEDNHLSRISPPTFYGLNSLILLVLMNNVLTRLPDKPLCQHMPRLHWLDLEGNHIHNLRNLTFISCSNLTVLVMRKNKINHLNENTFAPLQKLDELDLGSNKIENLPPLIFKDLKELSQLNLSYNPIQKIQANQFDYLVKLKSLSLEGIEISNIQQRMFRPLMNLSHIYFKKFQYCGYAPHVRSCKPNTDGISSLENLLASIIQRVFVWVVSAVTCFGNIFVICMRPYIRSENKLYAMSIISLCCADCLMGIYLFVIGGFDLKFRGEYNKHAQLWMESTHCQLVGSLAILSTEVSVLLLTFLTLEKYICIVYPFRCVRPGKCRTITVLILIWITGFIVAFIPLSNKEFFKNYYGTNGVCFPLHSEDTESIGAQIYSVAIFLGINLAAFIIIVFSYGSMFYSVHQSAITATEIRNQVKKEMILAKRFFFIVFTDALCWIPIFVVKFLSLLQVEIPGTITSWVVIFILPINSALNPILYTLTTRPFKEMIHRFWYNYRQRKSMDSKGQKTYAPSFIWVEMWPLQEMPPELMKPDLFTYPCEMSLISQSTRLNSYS
Protocol: as §1

[3] = molecular target: T3, RXFP1 F50A^ins (Homo sapiens, UniProt Q9HBX9, INS72A); conditions: construct F50A^ins, ±s.e.m.
T3 construct: transiently transfected human embryonic kidney (HEK) 293T cells expressing full-length RXFP1 and mutants; expressed in transfected cells; host or cells: HEK293T
T3 sequence (Q9HBX9 with tags, fused parts or gaps INS72A limits assumed): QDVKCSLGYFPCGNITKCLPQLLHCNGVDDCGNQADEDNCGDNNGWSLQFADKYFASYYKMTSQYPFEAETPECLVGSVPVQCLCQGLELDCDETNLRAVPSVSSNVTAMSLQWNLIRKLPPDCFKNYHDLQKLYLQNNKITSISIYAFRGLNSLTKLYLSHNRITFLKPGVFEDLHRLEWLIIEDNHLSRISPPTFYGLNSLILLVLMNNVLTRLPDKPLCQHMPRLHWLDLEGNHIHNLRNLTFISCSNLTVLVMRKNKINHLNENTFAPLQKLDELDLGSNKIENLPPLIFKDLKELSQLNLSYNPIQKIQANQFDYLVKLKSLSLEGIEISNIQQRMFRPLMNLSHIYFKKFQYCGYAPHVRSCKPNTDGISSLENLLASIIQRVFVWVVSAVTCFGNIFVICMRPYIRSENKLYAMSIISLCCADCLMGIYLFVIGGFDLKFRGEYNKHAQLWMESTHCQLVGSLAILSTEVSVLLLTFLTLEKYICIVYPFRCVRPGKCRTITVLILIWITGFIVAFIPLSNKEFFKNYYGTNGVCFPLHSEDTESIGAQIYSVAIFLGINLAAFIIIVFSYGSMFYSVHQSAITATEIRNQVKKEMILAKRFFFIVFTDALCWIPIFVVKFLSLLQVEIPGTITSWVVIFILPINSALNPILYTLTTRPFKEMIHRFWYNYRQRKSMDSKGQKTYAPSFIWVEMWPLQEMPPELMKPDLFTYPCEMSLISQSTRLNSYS
Protocol: as §1

[4] = percentage of maximum response to 5 μM Forskolin

H2 relaxin: two-chain 6-kDa peptide hormone structurally related to insulin; recombinant human gene-2 H2 relaxin provided by Corthera
H2 relaxin pEC50 ([1]; cAMP reporter): 11.18±0.02 (3)
H2 relaxin Emax [1, 4]: 93.78±3.19 (3) %
H2 relaxin pEC50 ([2]; cAMP reporter): 11.20±0.03 (4)
H2 relaxin Emax [2, 4]: 118.2±6.51 (4) %
H2 relaxin pEC50 ([3]; cAMP reporter): 9.41±0.13 (3)
H2 relaxin Emax [3, 4]: 93.62±5.34 (3) %
